Experimental data from US20210324028A1 (Pfizer, published 2021).
Residue numbers refer to the chain shown, from its start. Names may count otherwise. Each block holds one binder with its values, some of them ahead of it.

Columns and labels:
human IL-2Rβ [1] = target: T1, human IL-2Rβ (human, UniProt P14784 27-240, limits assumed); assay: SPR 37C
T1 construct: also called hIL-2Rβ; IL-2 receptor beta
T1 sequence (looked up): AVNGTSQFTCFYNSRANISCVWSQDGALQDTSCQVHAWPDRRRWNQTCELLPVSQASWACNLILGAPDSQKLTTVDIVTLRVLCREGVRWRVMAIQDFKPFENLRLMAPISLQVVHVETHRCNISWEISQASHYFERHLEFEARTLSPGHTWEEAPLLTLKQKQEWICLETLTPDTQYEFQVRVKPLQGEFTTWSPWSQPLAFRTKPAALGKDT

human IL-2Rβ [2] = target: T1, human IL-2Rβ; assay: SPR, steady state
human IL-15Rα = target: T2, human IL-15Rα (human, UniProt Q13261 31-205, limits assumed); assay: SPR, steady state
T2 construct: also called hIL-15Rα; IL-15 receptor alpha
T2 sequence (Q13261 31-205 limits assumed): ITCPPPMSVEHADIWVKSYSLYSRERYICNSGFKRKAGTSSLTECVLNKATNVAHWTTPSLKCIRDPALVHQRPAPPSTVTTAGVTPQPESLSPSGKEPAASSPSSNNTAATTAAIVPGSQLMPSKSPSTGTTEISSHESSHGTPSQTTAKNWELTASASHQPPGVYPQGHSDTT

binding result (human IL-2Rβ [1]): no binding
B1: hIL-15 V49R/K10P (ligand)
chain: NWVNVISDLPKIEDLIQSMHIDATLYTESDVHPSCKVTAMKCFLLELQRISLESGDASIHDTVENLIILANNSLSSNGNVTESGCKECEELEEKNIKEFLQSFVHIVQMFINTGGGGSGHHHHHHHHGGGLNDIFEAQKIEWHE

Kd (human IL-2Rβ [2]): 194 nM
Kd (human IL-15Rα): 140 nM
B2: hIL-15 V49R/N1S (ligand)
chain: B1 chain with N1S, P10K

Kd (human IL-2Rβ [2]): > 500 nM
Kd (human IL-15Rα): 105 nM
B3: hIL-15 V49R/N4G (ligand)
chain: B1 chain with N4G, P10K

Kd (human IL-2Rβ [2]): 96.4 nM
Kd (human IL-15Rα): 81.5 nM
B4: hIL-15 V49R/N4H (ligand)
chain: B1 chain with N4H, P10K

Kd (human IL-2Rβ [2]): 311 nM
Kd (human IL-15Rα): 105 nM
B5: hIL-15 V49R/N1D (ligand)
chain: B1 chain with N1D, P10K

Kd (human IL-2Rβ [2]): 269 nM
Kd (human IL-15Rα): 129 nM
B6: hIL-15 V49R/V31A (ligand)
chain: B1 chain with P10K, V31A

Kd (human IL-2Rβ [2]): > 500 nM
Kd (human IL-15Rα): > 500 nM
B7: hIL-15 V49R/V31D (ligand)
chain: B1 chain with P10K, V31D

Kd (human IL-2Rβ [2]): > 500 nM
Kd (human IL-15Rα): 215 nM
B8: hIL-15 V49R/M109K (ligand)
chain: B1 chain with P10K, M109K

Kd (human IL-2Rβ [2]): 354 nM
Kd (human IL-15Rα): 75.6 nM
B9: hIL-15 V49R/S7H (ligand)
chain: B1 chain with S7H, P10K

Kd (human IL-2Rβ [2]): 249 nM
Kd (human IL-15Rα): 104 nM
B10: hIL-15 V49R/N1T (ligand)
chain: B1 chain with N1T, P10K

Kd (human IL-2Rβ [2]): > 500 nM
Kd (human IL-15Rα): 59.5 nM
B11: hIL-15 V49R/N4Q (ligand)
chain: B1 chain with N4Q, P10K

Kd (human IL-2Rβ [2]): 182 nM
Kd (human IL-15Rα): 118 nM
B12: hIL-15 V49R/N72S (ligand)
chain: B1 chain with P10K, N72S

Kd (human IL-2Rβ [2]): > 500 nM
Kd (human IL-15Rα): 264 nM
B13: hIL-15 V49R/N1K (ligand)
chain: B1 chain with N1K, P10K

Kd (human IL-2Rβ [2]): 462 nM
Kd (human IL-15Rα): 161 nM
B14: hIL-15 V49R/Q108A (ligand)
chain: B1 chain with P10K, Q108A

Kd (human IL-2Rβ [2]): 438 nM
Kd (human IL-15Rα): 143 nM
B15: hIL-15 V49R/N4W (ligand)
chain: B1 chain with N4W, P10K

Kd (human IL-2Rβ [2]): > 500 nM
Kd (human IL-15Rα): 147 nM
B16: hIL-15 V49R/S7G (ligand)
chain: B1 chain with S7G, P10K

Kd (human IL-2Rβ [2]): 311 nM
Kd (human IL-15Rα): 79.8 nM
B17: hIL-15 V49R/N4E (ligand)
chain: B1 chain with N4E, P10K

Kd (human IL-2Rβ [2]): 429 nM
Kd (human IL-15Rα): 98.6 nM
B18: hIL-15 V49R/N4L (ligand)
chain: B1 chain with N4L, P10K

Kd (human IL-2Rβ [2]): 193 nM
Kd (human IL-15Rα): 201 nM
B19: hIL-15 V49R/N65K (ligand)
chain: B1 chain with P10K, N65K

Kd (human IL-2Rβ [2]): 398 nM
Kd (human IL-15Rα): 175 nM
B20: hIL-15 V49R/N1A (ligand)
chain: B1 chain with N1A, P10K

Kd (human IL-2Rβ [2]): > 500 nM
Kd (human IL-15Rα): 198 nM
B21: hIL-15 V49R/M109A (ligand)
chain: B1 chain with P10K, M109A

Kd (human IL-2Rβ [2]): > 1000 nM
Kd (human IL-15Rα): 63.6 nM
B22: hIL-15 V49R/L69T (ligand)
chain: B1 chain with P10K, L69T

Kd (human IL-2Rβ [2]): 340 nM
Kd (human IL-15Rα): 171 nM
B23: hIL-15 V49R/N1E (ligand)
chain: B1 chain with N1E, P10K

Kd (human IL-2Rβ [2]): 365 nM
Kd (human IL-15Rα): 103 nM
B24: hIL-15 V49R/N4D (ligand)
chain: B1 chain with N4D, P10K

Kd (human IL-2Rβ [2]): 339 nM
Kd (human IL-15Rα): 288 nM
B25: hIL-15 V49R/M109D (ligand)
chain: B1 chain with P10K, M109D

Kd (human IL-2Rβ [2]): > 500 nM
Kd (human IL-15Rα): 87.6 nM
B26: hIL-15 V49R/S7E (ligand)
chain: B1 chain with S7E, P10K

Kd (human IL-2Rβ [2]): 274 nM
Kd (human IL-15Rα): 154 nM
B27: hIL-15 V49R/S29A (ligand)
chain: B1 chain with P10K, S29A

Kd (human IL-2Rβ [2]): 235 nM
Kd (human IL-15Rα): 151 nM
B28: hIL-15 V49R/N1H (ligand)
chain: B1 chain with N1H, P10K

Kd (human IL-2Rβ [2]): 101 nM
Kd (human IL-15Rα): 105 nM
B29: hIL-15 V49R/N72D (ligand)
chain: B1 chain with P10K, N72D

Kd (human IL-2Rβ [2]): > 500 nM
Kd (human IL-15Rα): 77 nM
B30: hIL-15 V49R/S7R (ligand)
chain: B1 chain with S7R, P10K

Kd (human IL-2Rβ [2]): > 500 nM
Kd (human IL-15Rα): 265 nM
B31: hIL-15 V49R/V31S (ligand)
chain: B1 chain with P10K, V31S

Kd (human IL-2Rβ [2]): > 500 nM
Kd (human IL-15Rα): 93.9 nM
B32: hIL-15 V49R/S7T (ligand)
chain: B1 chain with S7T, P10K

Kd (human IL-2Rβ [2]): > 500 nM
Kd (human IL-15Rα): 121 nM
B33: hIL-15 V49R/N65D (ligand)
chain: B1 chain with P10K, N65D

Kd (human IL-2Rβ [2]): 362 nM
Kd (human IL-15Rα): 190 nM
B34: hIL-15 V49R/M109S (ligand)
chain: B1 chain with P10K, M109S

Kd (human IL-2Rβ [2]): 215 nM
Kd (human IL-15Rα): 125 nM
B35: hIL-15 V49R/Q108D (ligand)
chain: B1 chain with P10K, Q108D

Kd (human IL-2Rβ [2]): 290 nM
Kd (human IL-15Rα): 144 nM
B36: hIL-15 V49R/Q108S (ligand)
chain: B1 chain with P10K, Q108S

Kd (human IL-2Rβ [2]): 322 nM
Kd (human IL-15Rα): 154 nM
B37: hIL-15 V49R/S29N (ligand)
chain: B1 chain with P10K, S29N

Kd (human IL-2Rβ [2]): > 500 nM
Kd (human IL-15Rα): 115 nM
B38: hIL-15 V49R/N1Q (ligand)
chain: B1 chain with N1Q, P10K

Kd (human IL-2Rβ [2]): 248 nM
Kd (human IL-15Rα): 261 nM
B39: hIL-15 V49R/S29K (ligand)
chain: B1 chain with P10K, S29K

Kd (human IL-2Rβ [2]): 233 nM
Kd (human IL-15Rα): 88.1 nM
B40: hIL-15 V49R/N4M (ligand)
chain: B1 chain with N4M, P10K

Kd (human IL-2Rβ [2]): > 500 nM
Kd (human IL-15Rα): 160 nM
B41: hIL-15 V49R/N1G (ligand)
chain: B1 chain with N1G, P10K

Kd (human IL-2Rβ [2]): > 500 nM
Kd (human IL-15Rα): 121 nM
B42: hIL-15 V49R/S7D (ligand)
chain: B1 chain with S7D, P10K

Kd (human IL-2Rβ [2]): > 500 nM
Kd (human IL-15Rα): 98 nM
B43: hIL-15 V49R/N4A (ligand)
chain: B1 chain with N4A, P10K

Kd (human IL-2Rβ [2]): 220 nM
Kd (human IL-15Rα): 84 nM
B44: hIL-15 V49R/S7A (ligand)
chain: B1 chain with S7A, P10K

Kd (human IL-2Rβ [2]): 249 nM
Kd (human IL-15Rα): 85.4 nM
B45: hIL-15 V49R/Q108K (ligand)
chain: B1 chain with P10K, Q108K

Kd (human IL-2Rβ [2]): > 500 nM
Kd (human IL-15Rα): 93.2 nM
B46: hIL-15 V49R/S7N (ligand)
chain: B1 chain with S7N, P10K

Kd (human IL-2Rβ [2]): 215 nM
Kd (human IL-15Rα): 88.1 nM
B47: hIL-15 V49R/S7Q (ligand)
chain: B1 chain with S7Q, P10K

Kd (human IL-2Rβ [2]): > 500 nM
Kd (human IL-15Rα): 101 nM
B48: hIL-15 V49R/N72K (ligand)
chain: B1 chain with P10K, N72K

Kd (human IL-2Rβ [2]): 148 nM
Kd (human IL-15Rα): 117 nM
B49: hIL-15 V49R/N72A (ligand)
chain: B1 chain with P10K, N72A

Kd (human IL-2Rβ [2]): > 1000 nM
Kd (human IL-15Rα): 85.5 nM
B50: hIL-15 V49R/L69V (ligand)
chain: B1 chain with P10K, L69V

Kd (human IL-2Rβ [2]): 238 nM
Kd (human IL-15Rα): 121 nM
B51: hIL-15 V49R/S29D (ligand)
chain: B1 chain with P10K, S29D

Kd (human IL-2Rβ [2]): > 500 nM
Kd (human IL-15Rα): 103 nM
B52: hIL-15 V49R/S7K (ligand)
chain: B1 chain with S7K, P10K
